# Test results: patent US20140220033A1, “Administration of an Anti-Activin-A Compound to a Subject” (Santa Maria Biotherapeutics, Inc., priority 2013, published 2014)
# What was measured:
# [1] = test system: activin-A (βA) mRNA; assay: Northern blot of activin-A (βA) mRNA in tumors of inh-KO mice; type: in vivo, mouse; conditions: increase over WT controls, FIG. 5A
# Protocol: (§1) 12-week-old female and 8-week-old male inh-KO mice with fully established ovarian or testicular tumors received a single injection of PBS or sActRIIB (30 mg/kg, SC). As a control, age-matched wild-type littermates received a single injection of PBS. Ovarian and testicular organ weights were determined by necropsy 14 days after the injection.
# (§2) Total RNA was isolated from individual tissue samples after homogenization in Trizol (Invitrogen). A pool of 10 μg RNA for each group containing equal amounts of total RNA isolated from individual animals was subjected to Northern blot analysis. The northern probes used for βA and Ang-2 were generated by using RT-PCR (Phusion, Biolabs). βA primer set: 5′-CCCTTGCTTTGGCTGAGAGGA-3′ and 5′-TC ACA GGT CGT CGT AGG TCG-3′; Ang-2 primer set: 5′-TGT GCC GGG GAG AAG AG and 5′-TACAGTAGTGGGTTGAGGTTC-3′. To normalize the expression, northern blot membranes were re-probed with β-actin.
# [2] = test system: activin-A (βA) mRNA; assay: Endogenous activin-A (βA) mRNA in cell cultures (real-time RT-PCR); type: cell-based, human, bovine; conditions: TOV21G, BAEC, MRC-5, CCD-Lu, U937 and THP-1 cultures treated with recombinant activin-A, without or with sActRIIB; FIG. 18
# [3] = test system: VEGF transcripts; assay: VEGF mRNA in cell cultures (real-time RT-PCR); type: cell-based, human, bovine; conditions: TOV-21G, BAEC, MRC-5, CCD-Lu, U937 cultures treated with recombinant activin-A, without or with sActRIIB; FIG. 16A
# [4] = test system: testicular tumors in inh-KO mice; assay: Light microscopy (H&E) of testes of inh-KO mice; type: in vivo, mouse; conditions: male inh-KO mice; FIG. 7B
# Protocol: as §1
# Testes and ovaries from inh-KO mice were fixed with Zinc-formalin. Tissue sections were subjected to H&E staining and then examined with a Nikon Eclipse 90i microscope.
# [5] = test system: Ang-2 mRNA; assay: Northern blot of Ang-2 mRNA in gonadal tumors of inh-KO mice; type: in vivo, mouse; conditions: ovarian and testicular tumors of inh-KO mice; FIG. 8C
# Protocol: as §1, §2
# [6] = test system: G361 human melanoma xenografts; assay: G361 human melanoma xenograft growth in nude mice; type: in vivo; conditions: sActRIIB 20 mg/kg SC 1x/week from day 14, FIG. 19
# Protocol: 5×10^6 G361 melanoma cells and 5637 bladder carcinoma cells, respectively, were inoculated SC into individual athymic nu/nu mice (Harlan Inc). Treatment was initiated 4 days after 5637 implantation and 14 days after G361 implantation, when the tumor volumes reached 130 mm^3−150 mm^3 5637-implanted mice received PBS or activin-A antibody (10 mg/kg, SC, 2×/week). G361-implanted mice received PBS or sActRIIB (20 mg/kg, SC, 1×/week).
# For all xenograft experiments, the tumor sizes were measured longitudinally by using an electronic caliper Immediately prior to the 1st dose, the tumor-bearing mice were randomized to ensure even distribution in tumor sizes across different groups. Tumor volumes (mm^3) were calculated as tumor length (mm)×tumor width (mm)×tumor height (mm) Tumor weights were determined by necropsy.
molecule,measurement,setting,value
"sActRIIB: extracellular domain of human activin type-2B receptor fused to IgG2 Fc, expressed in CHO cells; sequence in the 26th table (protein, left off: a dimerising Fc or GST) ETRWCIYYNANWELERTNQGLERCEGEQDKRLHCYASWRNSSGTIELVKKGCWLDDFNCYDRQECVATEENPQVYFCCCEGNFCNERFTHLPEAGGPEVTYEPPPTAPTGGGGSVECPPCPAPPVAGPSVFLFPPKPKDTLMISRTPEVTCVVVDVSHEDPEVQFNWYVDGVEVHNAKTKPREEQFNSTFRVVSVLTVVHQDWLNGKEYKCKVSNKGLPAPIEKTISKTKGQPREPQVYTLPPSREEMTKNQVSLTCLVKGFYPSDIAVEWESNGQPENNYKTTPPMLDSDGSFFLYSKLTVDKSRWQQGNVFSCSVMHEALHNHYTQKSLSLSPGK",βA transcripts in the tumors (Northern blot),[1],completely blocked
same,endogenous βA mRNA expression,[2],blocked completely
same,levels of VEGF transcripts,[3],prevented this induction
same,testicular morphology (light microscopy),[4],the testes were normal in size and filled with seminiferous tubules
same,Ang-2 mRNA expression (Northern blot),[5],inhibited its overexpression
same,growth rates and sizes of G361 melanoma xenografts,[6],significantly decreased the growth rates and sizes
